Assay [1] addresses T1, human SIRPαBIT expressed on cells (human, UniProt P78324 31-504).
T1 construct: endogenous on U937 cells or transiently expressed on ExpiCHO-S cells; in the SHP-1 assay a ProLink-tagged form on Jurkat cells; also called huSIRPαBIT; U937 cells (huSIRPαBIT)
The assay is described as follows: flow cytometry, U937 cells. The method, then: (§1) After an incubation time of 30 min at 4° C., the cells were washed twice with ice-cold FACS buffer. Then, 50 μl/well secondary mAb was added (AffiniPure™ F(ab′)₂ fragment Goat-anti-human IgG-APC, 1:6,000 dilution, Jackson Immuno Research). After 30 min at 4° C., cells were washed twice and resuspended in 150 μl FACS buffer. Fluorescence intensities were determined by flow cytometry with the FACSVerse (BD Biosciences) and indicated as the median fluorescence intensity (MFI-Median) for U937 cells and the mean fluorescence intensity (MFI-Mean) for ExpiCHO-S cells. Curves were fitted by nonlinear regression with a variable slope (four parameters) in GraphPad Prism (version 7.02 for Windows, GraphPad, San Diego, Calif.). EC₅₀ values were calculated as the concentration in μg/ml that gives a response half way between bottom and top of the curve, when using a 4-parameter logistic fit.

Assay [2] deals with T2, human SIRPα1 expressed on cells (human, UniProt P78324 31-504).
T2 construct: whole, on cells; also called huSIRPα1; ExpiCHO-S (huSIRPα1)
Kind of assay: flow cytometry, ExpiCHO-S cells. How it is done:
as §1

The target in assay [3] is T1, human SIRPαBIT expressed on cells. The assay is described as follows: flow cytometry, ExpiCHO-S cells. How it is done:
as §1

The target of assay [4] is T3, human SIRPβ1v1, AVI-tagged, biotinylated, monomeric form (human, UniProt O00241 30-371, biotinylated).
T3 construct: also called huSIRPβ1v1
Kind of assay: SPR, captured monomeric antigen. How it is done:
(§2) Surface Plasmon Resonance (SPR) assay: Affinity analysis was performed by single cycle kinetics analysis on a BiaCore™ T200 instrument (GE life Sciences) at 25° C. […] The streptavidin surface was prepared by injection of biotin capture reagent. […] After a 1 min baseline stabilization, five increasing concentrations of the anti-SIRPα antibodies were injected with an association time of 150 sec. […] The concentration range was chosen around the expected KD. Regeneration was performed according to the manufacturer's protocol with 6M guanidine-HCl, 0.25M NaOH solution. Double reference subtraction was performed on the obtained sensorgrams using a (biotin capture reagent bound) reference flow channel and a running buffer injection. Sensorgrams were fitted with a 1:1 Langmuir model for all tested anti-SIRP antibodies. The kinetic parameters (kₐ, kd and KD) were calculated using the BiaCore™ T200 evaluation software (v3.1). huSIRPβ₁ᵥ₁ and huSIRPβ₁ᵥ₂ were tested in their monomeric form.

For assay [5], the target named is T4, human SIRPβ1v2, AVI-tagged, biotinylated, monomeric form (human, UniProt Q5TFQ8 30-371, biotinylated).
T4 construct: also called huSIRPβ1v2
Kind of assay: SPR, captured monomeric antigen. The method, then:
as §2

In assay [6] the target is T1, human SIRPαBIT expressed on cells. Kind of assay: flow cytometry, U937 cells. How it is done:
(§3) After an incubation time of 30 min at 4° C., the cells were washed three times with ice-cold FACS buffer and 50 μl/well secondary mAb (for human antibodies, AffiniPure F(ab′)₂ fragment Goat-anti-human IgG-APC, 1:6,000 dilution, Jackson Immuno Research was added and for mouse antibodies, AffiniPure Fab fragment Goat Anti-Mouse IgG (H+L)-Alexa Fluor 488, 1:1,000 dilution, Jackson Immuno Research was added). After 30 min at 4° C., cells were washed twice and resuspended in 150 μl FACS buffer. Fluorescence intensities were determined by flow cytometry (BD FACSVerse, Franklin Lakes, N.J.) and indicated as the median fluorescence intensity (MFI-Median) for U937 cells and the mean fluorescence intensity (MFI-Mean) for ExpiCHO-S cells. Curves were fitted by nonlinear regression using the sigmoidal dose-response equation with variable slope (four parameters) in GraphPad Prism (version 7.02 for Windows, GraphPad, San Diego, Calif.). EC₅₀ values were calculated as the concentration in μg/ml that gives a response half way between bottom and top of the curve, when using a 4-parameter logistic fit.
This is another data set of the same source.

In assay [7] the target is T2, human SIRPα1 expressed on cells. Kind of assay: flow cytometry, ExpiCHO-S cells. How it is done:
as §3
This is another data set of the same source.

In assay [8] the target is T1, human SIRPαBIT expressed on cells. The assay is described as follows: flow cytometry, ExpiCHO-S cells. The method, then:
as §3
The source holds these as a separate data set.

Assay [9] concerns the target T5, human SIRPα1 extracellular domain 1-370, Avi-FXa-Fc tag (human, biotinylated).
T5 construct: also called huSIRPα1; v2
The assay is described as follows: SPR, captured biotinylated antigen. The method, then:
(§4) Surface Plasmon Resonance (SPR) assay: Affinity analysis was performed by single cycle kinetics analysis on a Surface Plasmon Resonance apparatus (BiaCore™ T200 system, GE Life Sciences) at 25° C. […] For each step an association time of 150 sec was used, followed by a dissociation time of 600 sec after the highest concentration only, all at a flow rate of 30 μl/min. Regeneration was performed with 6 M guanidine-HCl, 0.25 M NaOH solution (120 sec with flow rate of 30 μl/min). […] Sensorgrams were fitted with a 1:1 Langmuir model for all tested anti-SIRP antibodies. The kinetic parameters (association rate [kₐ], dissociation rate [kd] and binding constant, also referred to as equilibrium dissociation constant or binding affinity [KD]) were calculated using BiaCore™ T200 evaluation software (v3.1).

The target of assay [10] is T6, human SIRPαBIT, extracellular domain 1-370, Avi-FXa-Fc tag (human, biotinylated).
T6 construct: also called huSIRPαBIT; v1
The assay is described as follows: SPR, captured biotinylated antigen. How it is done:
as §4

Assay [11] has as its target T7, human SIRPγ, extracellular domain, Avi-FXa-Fc tag (human, biotinylated).
T7 construct: also called huSIRPγ
Kind of assay: SPR, captured biotinylated antigen. The method, then: as §4

Assay [12] addresses T8, human SIRPβ1v2, extracellular domain, Avi-FXa-Fc tag (human, biotinylated).
T8 construct: also called huSIRPβ1v2
Kind of assay: SPR, captured biotinylated antigen. How it is done: as §4

Assay [13] addresses T9, human SIRPβ1v1, extracellular domain, Avi-FXa-Fc tag (human, biotinylated).
T9 construct: also called huSIRPβ1v1
Kind of assay: SPR, captured biotinylated antigen. How it is done:
as §4

Among the data in patent publication US20210388107A1 (BYONDIS B V, published 2021) are EC50 and Kd values, retold here.

Where two headings read alike, the source gives them in different places.

T1 sequence (P78324 31-504 limits assumed): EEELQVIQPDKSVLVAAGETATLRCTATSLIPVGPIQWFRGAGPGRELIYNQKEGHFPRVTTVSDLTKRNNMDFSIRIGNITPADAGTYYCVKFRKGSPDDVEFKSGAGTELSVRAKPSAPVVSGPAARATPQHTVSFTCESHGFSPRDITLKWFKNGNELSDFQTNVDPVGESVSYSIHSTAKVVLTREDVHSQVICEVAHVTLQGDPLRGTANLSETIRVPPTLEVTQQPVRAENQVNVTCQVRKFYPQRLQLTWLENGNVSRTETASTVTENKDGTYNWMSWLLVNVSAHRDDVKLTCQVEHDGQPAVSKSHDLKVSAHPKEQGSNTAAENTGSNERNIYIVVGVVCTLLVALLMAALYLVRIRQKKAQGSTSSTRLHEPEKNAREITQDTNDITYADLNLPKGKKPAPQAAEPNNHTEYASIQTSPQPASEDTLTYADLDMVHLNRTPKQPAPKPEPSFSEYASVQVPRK
T4 sequence (Q5TFQ8 30-371): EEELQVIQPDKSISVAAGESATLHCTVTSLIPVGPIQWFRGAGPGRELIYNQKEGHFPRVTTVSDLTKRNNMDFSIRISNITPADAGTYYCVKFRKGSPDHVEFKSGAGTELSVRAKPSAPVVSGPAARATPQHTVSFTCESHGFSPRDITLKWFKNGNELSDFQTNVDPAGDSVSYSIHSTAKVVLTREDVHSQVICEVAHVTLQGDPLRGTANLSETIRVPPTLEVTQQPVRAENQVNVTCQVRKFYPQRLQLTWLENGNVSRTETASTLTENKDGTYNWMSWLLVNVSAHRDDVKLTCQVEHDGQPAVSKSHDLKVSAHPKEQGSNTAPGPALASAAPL
T2 sequence (P78324 other isoform, or with tags, fused parts or gaps limits assumed): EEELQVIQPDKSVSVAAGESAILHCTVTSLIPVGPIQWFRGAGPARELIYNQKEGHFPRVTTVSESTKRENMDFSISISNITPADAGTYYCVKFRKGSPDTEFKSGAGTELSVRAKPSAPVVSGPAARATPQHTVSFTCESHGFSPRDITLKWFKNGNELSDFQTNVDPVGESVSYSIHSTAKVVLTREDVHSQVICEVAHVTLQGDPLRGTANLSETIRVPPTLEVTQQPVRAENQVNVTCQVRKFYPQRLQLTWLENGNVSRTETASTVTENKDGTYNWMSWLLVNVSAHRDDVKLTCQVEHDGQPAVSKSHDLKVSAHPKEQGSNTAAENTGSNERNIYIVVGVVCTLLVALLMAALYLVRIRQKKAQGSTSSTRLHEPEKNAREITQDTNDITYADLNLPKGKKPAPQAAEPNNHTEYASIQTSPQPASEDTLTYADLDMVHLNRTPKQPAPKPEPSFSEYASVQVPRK
T3 sequence (O00241 30-371): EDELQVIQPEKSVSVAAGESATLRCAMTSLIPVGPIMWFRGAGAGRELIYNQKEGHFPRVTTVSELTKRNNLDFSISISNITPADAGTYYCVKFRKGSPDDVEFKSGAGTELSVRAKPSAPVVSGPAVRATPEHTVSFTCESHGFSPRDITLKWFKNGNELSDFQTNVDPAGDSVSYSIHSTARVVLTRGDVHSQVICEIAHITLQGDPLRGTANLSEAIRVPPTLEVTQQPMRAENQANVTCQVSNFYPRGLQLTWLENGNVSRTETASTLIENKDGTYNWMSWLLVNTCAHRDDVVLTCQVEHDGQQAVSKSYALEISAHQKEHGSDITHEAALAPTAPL

B1: 40A-2 (40AVH2VL4 humanized IgG2-kappa, HC-A378S) (antibody)
heavy: EVQLVQSGAEVVKPGASVKLSCKASGSTFTSYWMHWVKQAPGQGLEWIGAIYPVNSDTTYNQKFKGKATLTVDKSASTAYMELSSLRSEDTAVYYCTRSFYYSLDAAWFVYWGQGTLVTVSSASTKGPSVFPLAPCSRSTSESTAALGCLVKDYFPEPVTVSWNSGALTSGVHTFPAVLQSSGLYSLSSVVTVPSSNFGTQTYTCNVDHKPSNTKVDKTVERKCCVECPPCPAPPVAGPSVFLFPPKPKDTLMISRTPEVTCVVVDVSHEDPEVQFNWYVDGVEVHNAKTKPREEQFNSTFRVVSVLTVVHQDWLNGKEYKCKVSNKGLPAPIEKTISKTKGQPREPQVYTLPPSREEMTKNQVSLTCLVKGFYPSDIAVEWESNGQPENNYKTTPPMLDSDGSFFLYSKLTVDKSRWQQGNVFSCSVMHEALHNHYTQKSLSLSPGK
light: DIQMTQSPSSLSASVGDRVTITCRASQDIGSRLNWLQQKPGKAPKRLIYATSSLDSGVPSRFSGSGSGTEFTLTISSLQPEDFATYYCLQYASSPFTFGGGTKVEIKRTVAAPSVFIFPPSDEQLKSGTASVVCLLNNFYPREAKVQWKVDNALQSGNSQESVTEQDSKDSTYSLSSTLTLSKADYEKHKVYACEVTHQGLSSPVTKSFNRGEC
Consider B1, for which the EC50 in assay [1] was found to be 0.24 µg/mL; in assay [2], 0.14 µg/mL; in assay [3] it was 0.12 µg/mL. Moreover, the Kd worked out at 9.7 nM in [4] and 0.188 nM in [5].

B2: KWAR23 (mouse IgG2a) (antibody)
heavy: EVQLQQSGAELVKPGASVKLSCTASGFNIKDYYIHWVQQRTEQGLEWIGRIDPEDGETKYAPKFQDKATITADTSSNTAYLHLSSLTSEDTAVYYCARWGAYWGQGTLVTVSSAKTTAPSVYPLAPVCGDTTGSSVTLGCLVKGYFPEPVTLTWNSGSLSSGVHTFPAVLQSDLYTLSSSVTVTSSTWPSQSITCNVAHPASSTKVDKKIEPRGPTIKPCPPCKCPAPNLLGGPSVFIFPPKIKDVLMISLSPIVTCVVVDVSEDDPDVQISWFVNNVEVHTAQTQTHREDYNSTLRVVSALPIQHQDWMSGKEFKCKVNNKDLPAPIERTISKPKGSVRAPQVYVLPPPEEEMTKKQVTLTCMVTDFMPEDIYVEWTNNGKTELNYKNTEPVLDSDGSYFMYSKLRVEKKNWVERNSYSCSVVHEGLHNHHTTKSFSRTPGK
light: QIVLTQSPAIMSASPGEKVTLTCSASSSVSSSYLYWYQQKPGSSPKLWIYSTSNLASGVPARFSGSGSGTSYSLTISSMEAEDAASYFCHQWSSYPRTFGAGTKLELKRADAAPTVSIFPPSSEQLTSGGASVVCFLNNFYPKDINVKWKIDGSERQNGVLNSWTDQDSKDSTYSMSSTLTLTKDEYERHNSYTCEATHKTSTSPIVKSFNRNEC
For B2, the half-maximal effective concentration (EC50) came out at 0.14 µg/mL in [6], 0.08 µg/mL in [7] and 0.1 µg/mL in [8]. Also, the equilibrium dissociation constant (Kd) was 0.0147 nM in assay [4]; 0.0274 nM in [5]; 0.0144 nM in assay [9]; less than 0.01 nM in assay [10]; less than 0.01 nM in assay [11]; less than 0.01 nM in assay [12]. The Kd in assay [13] worked out at 0.0356 nM.
